B1: OcFLS2 (Albuca bracteata) (protein)
chain: MEVERVQAIASMTASLGTIPAEFIRSEHERPDITTYHGPVPDIPVIDLSDTDRAAVAKAIADAAQEWGIFQVVNHGIPVEAIKELQRVGKGFFELPQEEKEAYATVPDSGSFEGYGTKLQKDLGGKKAWVDYLFHNVWPESKINYRFWPNNPPEYRKANEEYAKYLQEVVDEMLSSLSVGLGLEGHVLKEAVGGDELEYLLKINYYPPCPRPDLALGVVAHTDMSAITILVPNEVPGLQVFKDDHWFDAKYIPNALIVHIGDQIEILSNGKYKSVLHRTTVNKEKARMSWPVFCSPPGEMIVGPLPQLVSDENPAKFKTKKYKEYSYCKINKLPQ
B2: OcFLS1 (Albuca bracteata) (protein)
chain: MEVERVQAIASMTASLGTIPAEFIRSEHERPDITTYHGPVPDIPVVDLSATDRAGVTKAIAEAAQEWGIFQVVNHRVPIEAIKELQRVGKEFFELPQEEKEAYATVPDSGSFEGYGTRLQKDLEGKKAWVDYLFHNVWPQSKITYRFWPNNPPEYRKANEEYAKYLQGVVDEMLTSLSLGLGLESHVLKEAVGGDELEYLLKINYYPPCPRPDLALGVVAHTDMSAITILVPNEVPGLQVFKDDHWFDAKYIPNALIVHIGDQIEILSNGKYKSVLHRTTVNKEKARMSWPVFCSPPGEMIVGPLPQLVSDENSAKFKTKKYKDYSYCKINKLPQ

Tests used:
Assay in all cases: HPLC, Lineweaver-Burk
Type in all cases: biochemical, Albuca bracteata
[1] = substrate: O=C1C[C@@H](c2ccc(O)cc2)Oc2cc(O)cc(O)c21; details: F3H activity, apparent Km, 2-oxoglutarate, Fe2+, ascorbate, pH 6.0, 20 °C
Text: (§1) HPLC, Lineweaver-Burk on OcFLS2

[2] = substrate: O=C1c2c(O)cc(O)cc2O[C@H](c2ccc(O)cc2)[C@H]1O; details: FLS activity, apparent Km, 2-oxoglutarate, Fe2+, ascorbate, pH 6.0, 20 °C
Text: as §1

[3] = substrate: O=C1C[C@@H](c2ccc(O)cc2)Oc2cc(O)cc(O)c21; details: F3H activity, apparent Km, 2-oxoglutarate, Fe2+, ascorbate, pH 6.0, 20 °C; remark: listed apart in the source
Text: (§2) HPLC, Lineweaver-Burk on OcFLS1

[4] = substrate: O=C1c2c(O)cc(O)cc2O[C@H](c2ccc(O)cc2)[C@H]1O; details: FLS activity, apparent Km, 2-oxoglutarate, Fe2+, ascorbate, pH 6.0, 20 °C; remark: listed apart in the source
Text: as §2

Row | Protein | Km [1] [µM] | Vmax [1] [µM/min] | Km [2] [µM] | Vmax [2] [µM/min] | Km [3] [µM] | Vmax [3] [µM/min] | Km [4] [µM] | Vmax [4] [µM/min]
1 | B1 | 110.5 ± 20.86 | 5.82 | 525.7 ± 198.4 | 15.1 | – | – | – | –
2 | B2 | – | – | – | – | 37.57 ± 6.316 | 2.05 | 471.3 ± 179 | 12.9

Source: publication PMC6515686, “Characterization of two flavonol synthases with iron-independent flavanone 3-hydroxylase activity from Ornithogalum caudatum Jacq” (BMC Plant Biology, 2019)
